How the values were obtained:
[1] = target: human CD3 on T cells (human) (UniProt P07766); test: cell-based or functional assay
[2] = target: human CEA on cells (CHO/huCEA, ASPC-1, LS1034) (human) (UniProt P06731); test: cell-based or functional assay
human CD3 (human) = human CD3 (human) (UniProt P07766); test: method not stated; KD of the CD3 binding arm, used to calculate fractional receptor occupancy

Chain of UniProt P06731 (P06731 35-702): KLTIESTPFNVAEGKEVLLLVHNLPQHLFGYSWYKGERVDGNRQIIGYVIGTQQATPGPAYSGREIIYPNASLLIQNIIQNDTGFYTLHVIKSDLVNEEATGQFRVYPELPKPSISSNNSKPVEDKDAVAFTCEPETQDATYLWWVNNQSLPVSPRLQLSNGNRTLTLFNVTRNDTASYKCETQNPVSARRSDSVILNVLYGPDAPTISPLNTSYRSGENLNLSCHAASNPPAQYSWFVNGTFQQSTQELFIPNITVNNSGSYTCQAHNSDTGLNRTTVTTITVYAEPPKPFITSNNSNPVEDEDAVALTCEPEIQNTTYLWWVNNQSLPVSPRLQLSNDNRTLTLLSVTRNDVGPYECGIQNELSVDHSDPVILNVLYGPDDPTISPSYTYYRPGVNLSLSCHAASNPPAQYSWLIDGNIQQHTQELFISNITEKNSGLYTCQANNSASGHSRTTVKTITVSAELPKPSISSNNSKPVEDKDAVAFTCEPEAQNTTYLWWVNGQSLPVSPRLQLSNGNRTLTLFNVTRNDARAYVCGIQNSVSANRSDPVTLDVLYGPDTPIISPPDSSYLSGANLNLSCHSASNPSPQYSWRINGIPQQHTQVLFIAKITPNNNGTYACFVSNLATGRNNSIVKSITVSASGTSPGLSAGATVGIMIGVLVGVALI

Substance: MEDI-565 (bispecific antibody)
- EC20 of CD25 de novo expression, C/P (PBMC without CD14 cocultured with CHO/huCEA), mean [1]: 0.217 ng/mL
- EC20 of CD25 upregulation on T cells (ASPC-1 target cells, PBMC with CD3ε, 48 h), mean of 10 donors [1]: 0.376 ng/mL
- EC20 of CD69 de novo expression, A/3 (PBMC with CD3ε cocultured with ASPC-1), mean [1]: 0.105 ng/mL
- EC20 of CD69 de novo expression, C/P (PBMC without CD14 cocultured with CHO/huCEA), mean [1]: 0.134 ng/mL
- EC20 of CD69 upregulation on T cells (ASPC-1 target cells, PBMC with CD3ε, 48 h), mean of 5 donors [1]: 0.441 ng/mL
- EC20 of IFNγ release (ASPC-1 target cells, PBMC with CD3ε, 48 h), mean [1]: 1.56 ng/mL
- EC20 of IL2 release (ASPC-1 target cells, PBMC with CD3ε, 48 h), mean [1]: 0.732 ng/mL
- EC20 of IL6 release (ASPC-1 target cells, PBMC with CD3ε, 48 h), mean [1]: 1.83 ng/mL
- EC20 of IL10 release (ASPC-1 target cells, PBMC with CD3ε, 48 h), mean [1]: 0.686 ng/mL
- EC20 of TNFα release (ASPC-1 target cells, PBMC with CD3ε, 48 h), mean [1]: 1.29 ng/mL
- EC50 of CD25 upregulation on T cells (ASPC-1 target cells, PBMC with CD3ε, 48 h), mean of 10 donors [1]: 4.65 ng/mL
- EC50 of CD69 de novo expression, A/3 (PBMC with CD3ε cocultured with ASPC-1), mean [1]: 1.26 ng/mL
- EC50 of CD69 de novo expression, C/3 (PBMC with CD3ε cocultured with CHO/huCEA), one value [1]: 1.34 ng/mL
- EC50 of CD69 upregulation on T cells (ASPC-1 target cells, PBMC with CD3ε, 48 h), mean of 5 donors [1]: 13.8 ng/mL
- EC50 of IFNγ release (ASPC-1 target cells, PBMC with CD3ε, 48 h), mean [1]: 3.29 ng/mL
- EC50 of IL2 release (ASPC-1 target cells, PBMC with CD3ε, 48 h), mean [1]: 2.14 ng/mL
- EC50 of IL6 release (ASPC-1 target cells, PBMC with CD3ε, 48 h), mean [1]: 4.04 ng/mL
- EC50 of IL10 release (ASPC-1 target cells, PBMC with CD3ε, 48 h), mean [1]: 3.92 ng/mL
- EC50 of TNFα release (ASPC-1 target cells, PBMC with CD3ε, 48 h), mean [1]: 6.56 ng/mL
- mean EC20 of CD25 upregulation (PBMC with CD3ε cocultured with CHO/huCEA, E:T 10:1, 72 h) [1]: 0.269 ng/mL
- EC20 of specific lysis of ASPC-1 cells (PBMC with CD3ε, E:T 5:1, 48 h), mean of 10 donors [2]: 0.097 ng/mL
- EC20 of specific lysis, C/P (CHO/huCEA cocultured with PBMC without CD14), mean [2]: 0.371 ng/mL
- EC50 of specific lysis of ASPC-1 cells (PBMC with CD3ε, E:T 5:1, 48 h), mean of 10 donors [2]: 2.03 ng/mL
- EC50 of specific lysis, A/P (ASPC-1 cocultured with PBMC without CD14), mean [2]: 0.971 ng/mL
- mean EC20 of specific lysis of ASPC-1 cells (PBMC with CD3ε, E:T 5:1, 48 h; Example 1, 11 donors) [2]: 0.05 ng/mL
- Kd (human CD3 (human)): 307 nM

Source: patent publication US20140242081A1
